Results on 1 molecule are retold here after US20210364527A1 (QUANTUM SI, published 2021).

Primed or numbered codes have the meaning given here. Ends that are not written are not given here. FITC′ = not defined here

The target of experiment [1] is T1, FITC-labeled FA peptide FAKLDEESILKQK-FITC.
T1 peptide: FAKLDEESILKQK-{FITC′}
The experiment in a line: fluorescence polarization, single point.

The target of experiment [2] is T2, FITC-labeled YA peptide YAKLDEESILKQK-FITC.
T2 peptide: YAKLDEESILKQK-{FITC′}
The experiment can be described thus: fluorescence polarization, single point.

Experiment [3] deals with T3, FITC-labeled WA peptide WAKLDEESILKQK-FITC.
T3 peptide: WAKLDEESILKQK-{FITC′}
The experiment in a line: fluorescence polarization, single point.

Experiment [4] deals with T4, I (IAWLVK).
T4 chain: IAWLVK
The experiment in a line: dynamic sequencing of EFIAWLVK with PS610, PS372, hTET and pfuTET.

The target of experiment [5] is T5, VR peptide VRKLDEESILKQK (XXKLDEESILKQK, XX = VR).
T5 construct: Biolayer interferometry
T5 peptide: VRKLDEESILKQK
The experiment can be described thus: biolayer interferometry.

The target in experiment [6] is T6, IR peptide IRKLDEESILKQK (XXKLDEESILKQK, XX = IR).
T6 construct: Biolayer interferometry
T6 peptide: IRKLDEESILKQK
The experiment can be described thus: biolayer interferometry.

The target in experiment [7] is T7, IQ peptide IQKLDEESILKQK (XXKLDEESILKQK, XX = IQ).
T7 construct: Biolayer interferometry
T7 peptide: IQKLDEESILKQK
The experiment can be described thus: biolayer interferometry.

Experiment [8] addresses T8, W peptide WAKLDEESILKQK (XAKLDEESILKQK, X = W).
T8 construct: Immobilized on the biolayer interferometry sensor
T8 peptide: WAKLDEESILKQK
The experiment in a line: biolayer interferometry, peptide immobilized on the sensor, 30 C.

Experiment [9] addresses T9, Y peptide YAKLDEESILKQK (XAKLDEESILKQK, X = Y).
T9 construct: Immobilized on the biolayer interferometry sensor
T9 peptide: YAKLDEESILKQK
The description is as above.

Experiment [10] addresses T10, VA peptide VAKLDEESILKQK (XAKLDEESILKQK, X = V).
T10 construct: Immobilized on the biolayer interferometry sensor
T10 peptide: VAKLDEESILKQK
The experiment in a line: biolayer interferometry as in Example 12.

Experiment [11] addresses T11, F peptide FAKLDEESILKQK (XAKLDEESILKQK, X = F).
T11 construct: Immobilized on the biolayer interferometry sensor
T11 peptide: FAKLDEESILKQK
The experiment in a line: biolayer interferometry as in Example 12.

For experiment [12], the target named is T12, IA peptide IAKLDEESILKQK (XAKLDEESILKQK, X = I).
T12 construct: Immobilized on the biolayer interferometry sensor
T12 peptide: IAKLDEESILKQK
The experiment in a line: biolayer interferometry as in Example 12.

The target of experiment [13] is T13, LA peptide LAKLDEESILKQK (XAKLDEESILKQK, X = L).
T13 construct: Immobilized on the biolayer interferometry sensor
T13 peptide: LAKLDEESILKQK
The experiment in a line: biolayer interferometry as in Example 12.

Experiment [14] has as its target T14, FITC-labeled VA peptide VAKLDEESILKQK-FITC.
T14 peptide: VAKLDEESILKQK-{FITC′}
The experiment in a line: fluorescence polarization, FITC-peptide with ClpS:streptavidin complex, 23 C.

The target in experiment [15] is T15, FITC-labeled LA peptide LAKLDEESILKQK-FITC.
T15 peptide: LAKLDEESILKQK-{FITC′}
The description is as above.

For experiment [16], the target named is T16, FITC-labeled IA peptide IAKLDEESILKQK-FITC.
T16 peptide: IAKLDEESILKQK-{FITC′}
The description is as above.

B1: PS372 (ClpS homolog) (other)
chain: MAFPARGKTAPKNEVRRQPPYNVILLNDDDHTYRYVIEMLQKIFGFPPEKGFQIAEEVDRTGRVILLTTSKEHAELKQDQVHSYGPDPYLGRPCSGSMTCVIEPAV
notes: also called PS372-Bt; PS372-Bt-mPEG4
In the case of B1, the binding result in [1] is listed as “no binding”; in experiment [2], “no binding”; in experiment [3], “no binding”; in [4] it was “binds”; in [5], “no binding”; in [6] it was “binds”. The binding result in experiment [7] is “binds”; in experiment [8], “no binding”; in experiment [9], “no binding”; in experiment [10], “binds”; in experiment [11] it was “no binding”; in experiment [12] it was “binds”. Moreover, the binding result in [13], in experiment [14], in [15] and in experiment [16] was “binds” in each case.
